Data on one substance can be found in patent US12202907B2, “Nucleic acids encoding and methods of producing proteins comprising antibody chains” (Innate Pharma, priority 2018, dated 2025).

The target of assay [1] is T1, CD39 mutants transfected in Hek-293T cells (Homo sapiens, UniProt P49961, E143A/N99A/Q96A/R147E).
T1 construct: expressed in transfected cells; host or cells: HEK293T
T1 sequence (P49961 1-510 Q96A/N99A/E143A/R147E): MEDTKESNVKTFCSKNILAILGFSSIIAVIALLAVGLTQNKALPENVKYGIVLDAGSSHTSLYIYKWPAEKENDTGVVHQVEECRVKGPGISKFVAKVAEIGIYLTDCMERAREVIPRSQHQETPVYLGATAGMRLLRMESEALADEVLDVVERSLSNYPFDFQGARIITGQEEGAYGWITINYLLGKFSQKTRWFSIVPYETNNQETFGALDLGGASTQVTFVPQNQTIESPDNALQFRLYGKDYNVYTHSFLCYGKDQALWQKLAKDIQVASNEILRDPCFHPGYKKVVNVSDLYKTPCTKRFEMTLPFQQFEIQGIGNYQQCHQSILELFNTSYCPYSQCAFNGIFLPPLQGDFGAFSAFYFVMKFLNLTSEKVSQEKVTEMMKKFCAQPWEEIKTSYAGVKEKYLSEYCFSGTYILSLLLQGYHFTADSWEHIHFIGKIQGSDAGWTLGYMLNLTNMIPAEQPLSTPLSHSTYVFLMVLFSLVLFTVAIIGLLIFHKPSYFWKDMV
The assay can be described thus: Epitope mapping: binding to CD39 mutants by flow cytometry. The note with it: mutant 5: Q96A, N99A, E143A, R147E. Here is the method: CD39 mutants were generated by PCR. The sequences amplified were run on agarose gel and purified using the Macherey Nagel PCR Clean-Up Gel Extraction kit (reference 740609). The purified PCR products generated for each mutant were then ligated into an expression vector, with the ClonTech InFusion system. The vectors containing the mutated sequences were prepared as Miniprep and sequenced. After sequencing, the vectors containing the mutated sequences were prepared as Midiprep using the Promega PureYield™ Plasmid Midiprep System. HEK293T cells were grown in DMEM medium (Invitrogen), transfected with vectors using Invitrogen's Lipofectamine 2000 and incubated at 37° C. in a CO2 incubator for 48 hours prior to testing for transgene expression. The targeted amino acid mutations in the table 1 below are shown using numbering of SEQ ID NO: 1.
In order to define the epitopes of anti-CD39 antibodies, we designed CD39 mutants defined by substitutions of amino acids exposed at the molecular surface over the surface of CD39.
Dose-ranges of I-394 (10-2.5-0.625-0.1563-0.0391-0.0098-0.0024-0.0006 μg/ml) are tested on the 20 generated mutants by flow cytometry. […] Mutant 5 contains amino acid substitutions at residues Q96, N99, E143 and R147. […]
(In general: A flow cytometer gives signals particle by particle.)

Assay [2] concerns the target T2, Human CD39-L3 (NTPDase3, ENTPD3) (Homo sapiens, UniProt O75355).
T2 sequence (O75355 1-529): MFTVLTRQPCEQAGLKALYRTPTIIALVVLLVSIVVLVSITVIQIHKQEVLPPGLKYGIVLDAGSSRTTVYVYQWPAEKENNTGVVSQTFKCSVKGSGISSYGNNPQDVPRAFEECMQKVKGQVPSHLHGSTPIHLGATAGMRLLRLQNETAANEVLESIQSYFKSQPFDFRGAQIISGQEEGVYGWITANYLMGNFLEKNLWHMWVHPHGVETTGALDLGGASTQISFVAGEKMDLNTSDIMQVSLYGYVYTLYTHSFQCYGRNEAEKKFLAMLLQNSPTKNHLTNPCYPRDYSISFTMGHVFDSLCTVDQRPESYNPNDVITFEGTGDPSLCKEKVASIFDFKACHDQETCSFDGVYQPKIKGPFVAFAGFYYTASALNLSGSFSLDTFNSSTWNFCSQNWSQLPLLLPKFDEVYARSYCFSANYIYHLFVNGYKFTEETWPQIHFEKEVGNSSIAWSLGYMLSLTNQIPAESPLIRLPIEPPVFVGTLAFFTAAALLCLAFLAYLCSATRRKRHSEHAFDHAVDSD
The assay can be described thus: ELISA titration on CD39-L3. The format is binding. As to the method:
(§1) Antibody I-394 was tested for binding to recombinant human CD39 isoforms (Rec-huCD39 isoforms) having amino acid sequences shown below were coated in 96-well plate in PBS 1X at 500 ng/ml or 1 μg/ml at 4° C. overnight. Wells were washed in TBS Tween® 20 (polysorbate 20), and further saturated 2H at RT in TBS Blocking buffer. Dose range concentration of primary antibody was incubated in TBS blocking buffer for 2 h at RT. Wells were washed in TBS Tween® 20 (polysorbate 20). […] Optical density was measured on Enspire™ at OD=450.
In general terms: ELISA stands for enzyme-linked immunosorbent assay.

The subject of assay [3] is CHO cells expressing cynomolgus (Macaca fascicularis) CD39. The assay can be described thus: Antibody titration on CHO-cyCD39 by flow cytometry. The format is binding. The note with it: qualitative. Here is the method:
Antibody I-394 was tested in two repeated experiments for binding to CHO cells expressing human CD39, CHO cells expressing cynomolgus (Macaca fascicularis) CD39, CHO cells expressing murine CD39, and human Ramos lymphoma cells (ATCC™, reference CRL-1596). Cells were incubated with various concentration of unlabeled anti-CD39 antibody from 30 μg/ml to 5×10^−4 μg/ml, for 30 minutes at 4° C. After washes, cells were incubated with Goat anti-mouse H+L labeled secondary antibody for 30 min at 4° C.

The target in assay [4] is T3, Human CD39-L4 (NTPDase5, ENTPD5) (Homo sapiens, UniProt O75356).
T3 sequence (O75356 25-428): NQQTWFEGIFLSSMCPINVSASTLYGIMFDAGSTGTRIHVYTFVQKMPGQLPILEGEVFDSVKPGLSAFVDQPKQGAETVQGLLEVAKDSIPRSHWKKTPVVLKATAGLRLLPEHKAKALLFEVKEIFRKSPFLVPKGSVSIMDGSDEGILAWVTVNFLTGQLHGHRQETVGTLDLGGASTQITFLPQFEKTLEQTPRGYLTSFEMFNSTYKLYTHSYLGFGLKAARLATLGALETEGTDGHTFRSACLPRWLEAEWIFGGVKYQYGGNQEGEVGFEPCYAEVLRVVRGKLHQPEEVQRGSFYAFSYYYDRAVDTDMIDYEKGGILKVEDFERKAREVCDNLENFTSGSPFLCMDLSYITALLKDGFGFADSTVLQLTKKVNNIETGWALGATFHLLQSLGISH
The assay can be described thus: ELISA titration on CD39-L4. The class given is binding. Here is the method:
as §1

Turning to “I-394: anti-CD39 antibody, VH SEQ ID NO: 6, VL SEQ ID NO: 7, human IgG1 Fc with L234A/L235E/G237A/A330S/P331S”, the “binding to cells expressing mutant 5 of CD39” value in assay [1] was “strongly reduced binding to mutant 5 (but with some residual binding to mutant 5)”. In addition, in assay [2], the “binding to CD39-L3 in ELISA” value was “not to any of the isoforms CD39-L1, -L2, -L3 or -L4”. Further, the “binding to cells expressing cynomolgus CD39 (CHO-cyCD39)” value in assay [3] is on record as “bound”. For the same substance, the “binding to CD39-L4 in ELISA” value in assay [4] is recorded as “not to any of the isoforms CD39-L1, -L2, -L3 or -L4”.
